Target: … (SEQ ID NO: 3) in complex with HLA-B*44:03 (human)
Assay: cell-based or functional assay

B1: TCR6 (TCR, V domains shown, not shown: a dimerising Fc or GST)
V domain 1: QKEVEQNSGPLSVPEGAIASLNCTYSDRGSQSFFWYRQYSGKSPELIMFIYSNGDKEDGRFTAQLNKASQYVSLLIRDSQPSDSATYLCAVSSNTGKLIFGQGTTLQVKP
V domain 2: DAGVIQSPRHEVTEMGQEVTLRCKPISGHNSLFWYRQTMMRGLELLIYFNNNVPIDDSGMPEDRFSAKMPNASFSTLKIQPSEPRDSAVYFCASKWGQGAGDTQYFGPGTRLTVL
EC50 killing capacity: 1.4 E:T ratio

Source: patent publication EP4328239A1 (Max-Delbrück-Centrum für Molekulare Medizin in der …, dated 2024)
